Reference: paper PMC9242855, “Mechanism of replication origin melting nucleated by CMG helicase assembly” (Nature, 2022)
Each block holds one binder with its values, some of them ahead of it.

Key:
Assay in all cases: cryo-EM structure; dCMGE assembled from purified yeast proteins on nucleosome-flanked (chromatinized) ARS1 origin DNA with 5 mM ATP; undiluted CMG assembly reaction frozen on grids; dimer map at limited resolution, symmetry-expanded CMGE at 3.5 Å
[1] = molecular target: T1, Mcm3 (S. cerevisiae, UniProt P24279 1-971); details: both partners purified
T1 construct: Mcm3, subunit of the yeast MCM (Mcm2–7) helicase; Subunit seen within the dCMGE structure; source: purified within Mcm2–7–Cdt1 on the basis of previously established protocols
T1 sequence (P24279 whole entry): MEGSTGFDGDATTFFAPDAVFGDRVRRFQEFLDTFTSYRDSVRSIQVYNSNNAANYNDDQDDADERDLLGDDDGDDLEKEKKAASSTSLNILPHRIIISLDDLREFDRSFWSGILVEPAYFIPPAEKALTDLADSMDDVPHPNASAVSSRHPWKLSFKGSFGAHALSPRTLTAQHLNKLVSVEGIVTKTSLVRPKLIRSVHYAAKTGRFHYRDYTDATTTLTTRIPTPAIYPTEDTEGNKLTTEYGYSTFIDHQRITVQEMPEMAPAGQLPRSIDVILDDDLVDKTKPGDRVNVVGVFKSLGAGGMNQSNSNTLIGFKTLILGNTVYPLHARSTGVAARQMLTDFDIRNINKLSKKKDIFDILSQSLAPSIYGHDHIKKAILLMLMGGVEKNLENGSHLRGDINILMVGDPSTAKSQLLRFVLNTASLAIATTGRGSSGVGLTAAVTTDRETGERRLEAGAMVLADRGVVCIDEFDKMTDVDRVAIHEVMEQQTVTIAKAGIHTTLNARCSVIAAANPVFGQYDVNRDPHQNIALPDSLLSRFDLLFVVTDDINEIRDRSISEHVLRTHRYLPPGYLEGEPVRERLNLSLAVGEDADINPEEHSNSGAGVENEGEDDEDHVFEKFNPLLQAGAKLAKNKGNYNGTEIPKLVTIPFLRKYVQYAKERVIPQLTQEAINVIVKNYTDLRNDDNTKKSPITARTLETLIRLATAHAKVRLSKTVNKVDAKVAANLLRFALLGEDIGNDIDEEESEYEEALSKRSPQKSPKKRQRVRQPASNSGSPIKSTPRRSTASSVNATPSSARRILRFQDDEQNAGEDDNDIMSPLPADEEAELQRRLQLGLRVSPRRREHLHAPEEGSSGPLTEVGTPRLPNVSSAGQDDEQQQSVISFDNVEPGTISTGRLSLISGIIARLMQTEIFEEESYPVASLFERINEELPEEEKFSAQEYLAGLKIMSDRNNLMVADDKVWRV

[2] = molecular target: T2, Mcm4 (S. cerevisiae, UniProt P30665 1-933); details: both partners purified
T2 construct: Mcm4, subunit of the yeast MCM (Mcm2–7) helicase; Subunit seen within the dCMGE structure; source: purified within Mcm2–7–Cdt1 on the basis of previously established protocols
T2 sequence: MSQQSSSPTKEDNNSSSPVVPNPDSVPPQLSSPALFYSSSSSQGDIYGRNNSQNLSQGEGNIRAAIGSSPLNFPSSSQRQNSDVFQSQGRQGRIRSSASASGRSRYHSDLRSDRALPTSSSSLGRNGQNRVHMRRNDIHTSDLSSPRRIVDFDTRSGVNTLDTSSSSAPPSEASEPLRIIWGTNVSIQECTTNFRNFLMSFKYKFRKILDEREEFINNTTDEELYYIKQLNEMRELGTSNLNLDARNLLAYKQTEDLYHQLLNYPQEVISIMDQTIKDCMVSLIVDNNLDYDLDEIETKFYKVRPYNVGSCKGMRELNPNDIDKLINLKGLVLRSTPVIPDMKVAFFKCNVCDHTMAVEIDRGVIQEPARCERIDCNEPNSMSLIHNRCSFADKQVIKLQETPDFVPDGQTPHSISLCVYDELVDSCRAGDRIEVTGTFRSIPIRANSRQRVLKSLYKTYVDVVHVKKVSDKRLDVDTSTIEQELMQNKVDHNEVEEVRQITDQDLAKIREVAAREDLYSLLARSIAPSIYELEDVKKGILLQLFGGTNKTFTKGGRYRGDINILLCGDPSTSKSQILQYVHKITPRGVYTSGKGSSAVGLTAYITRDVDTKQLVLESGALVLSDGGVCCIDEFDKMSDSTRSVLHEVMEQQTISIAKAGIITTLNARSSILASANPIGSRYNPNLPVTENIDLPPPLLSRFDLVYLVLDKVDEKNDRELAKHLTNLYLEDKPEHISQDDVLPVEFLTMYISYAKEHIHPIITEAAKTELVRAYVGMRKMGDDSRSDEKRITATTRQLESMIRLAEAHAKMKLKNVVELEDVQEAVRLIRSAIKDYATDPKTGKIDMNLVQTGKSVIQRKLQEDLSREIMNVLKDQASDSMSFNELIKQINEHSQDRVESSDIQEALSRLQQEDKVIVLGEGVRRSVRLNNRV

[3] = molecular target: the molecule itself

binding result [1]: binds
binding result [2]: binds
B1: Mcm7 (natural protein, S. cerevisiae)
chain: MSAALPSIQLPVDYNNLFNEITDFLVTFKQDTLSSDATRNENEDENLDAENIEQHLLEKGPKYMAMLQKVANRELNSVIIDLDDILQYQNEKFLQGTQADDLVSAIQQNANHFTELFCRAIDNNMPLPTKEIDYKDDVLDVILNQRRLRNERMLSDRTNEIRSENLMDTTMDPPSSMNDALREVVEDETELFPPNLTRRYFLYFKPLSQNCARRYRKKAISSKPLSVRQIKGDFLGQLITVRGIITRVSDVKPAVEVIAYTCDQCGYEVFQEVNSRTFTPLSECTSEECSQNQTKGQLFMSTRASKFSAFQECKIQELSQQVPVGHIPRSLNIHVNGTLVRSLSPGDIVDVTGIFLPAPYTGFKALKAGLLTETYLEAQFVRQHKKKFASFSLTSDVEERVMELITSGDVYNRLAKSIAPEIYGNLDVKKALLLLLVGGVDKRVGDGMKIRGDINVCLMGDPGVAKSQLLKAICKISPRGVYTTGKGSSGVGLTAAVMKDPVTDEMILEGGALVLADNGICCIDEFDKMDESDRTAIHEVMEQQTISISKAGINTTLNARTSILAAANPLYGRYNPRLSPLDNINLPAALLSRFDILFLMLDIPSRDDDEKLAEHVTYVHMHNKQPDLDFTPVEPSKMREYIAYAKTKRPVMSEAVNDYVVQAYIRLRQDSKREMDSKFSFGQATPRTLLGIIRLSQALAKLRLADMVDIDDVEEALRLVRVSKESLYQETNKSKEDESPTTKIFTIIKKMLQETGKNTLSYENIVKTVRLRGFTMLQLSNCIQEYSYLNVWHLINEGNTLKFVDDGTMDTDQEDSLVSTPKLAPQTTASANVSAQDSDIDLQDA
notes: Mcm7, subunit of the yeast MCM (Mcm2–7) helicase; Subunit seen within the dCMGE structure; source: purified within Mcm2–7–Cdt1 on the basis of previously established protocols

B2: Mcm6 (natural protein, S. cerevisiae)
chain: MSSPFPADTPSSNRPSNSSPPPSSIGAGFGSSSGLDSQIGSRLHFPSSSQPHVSNSQTGPFVNDSTQFSSQRLQTDGSATNDMEGNEPARSFKSRALNHVKKVDDVTGEKVREAFEQFLEDFSVQSTDTGEVEKVYRAQIEFMKIYDLNTIYIDYQHLSMRENGALAMAISEQYYRFLPFLQKGLRRVVRKYAPELLNTSDSLKRSEGDEGQADEDEQQDDDMNGSSLPRDSGSSAAPGNGTSAMATRSITTSTSPEQTERVFQISFFNLPTVHRIRDIRSEKIGSLLSISGTVTRTSEVRPELYKASFTCDMCRAIVDNVEQSFKYTEPTFCPNPSCENRAFWTLNVTRSRFLDWQKVRIQENANEIPTGSMPRTLDVILRGDSVERAKPGDRCKFTGVEIVVPDVTQLGLPGVKPSSTLDTRGISKTTEGLNSGVTGLRSLGVRDLTYKISFLACHVISIGSNIGASSPDANSNNRETELQMAANLQANNVYQDNERDQEVFLNSLSSDEINELKEMVKDEHIYDKLVRSIAPAVFGHEAVKKGILLQMLGGVHKSTVEGIKLRGDINICVVGDPSTSKSQFLKYVVGFAPRSVYTSGKASSAAGLTAAVVRDEEGGDYTIEAGALMLADNGICCIDEFDKMDISDQVAIHEAMEQQTISIAKAGIHATLNARTSILAAANPVGGRYNRKLSLRGNLNMTAPIMSRFDLFFVILDDCNEKIDTELASHIVDLHMKRDEAIEPPFSAEQLRRYIKYARTFKPILTKEARSYLVEKYKELRKDDAQGFSRSSYRITVRQLESMIRLSEAIARANCVDEITPSFIAEAYDLLRQSIIRVDVDDVEMDEEFDNIESQSHAASGNNDDNDDGTGSGVITSEPPADIEEGQSEATARPGTSEKKKTTVTYDKYVSMMNMIVRKIAEVDREGAEELTAVDIVDWYLLQKENDLGSLAEYWEERRLAFKVIKRLVKDRILMEIHGTRHNLRDLENEENENNKTVYVIHPNCEVLDQLEPQDSS
notes: Mcm6, subunit of the yeast MCM (Mcm2–7) helicase; Subunit seen within the dCMGE structure; source: purified within Mcm2–7–Cdt1 on the basis of previously established protocols
binding result [3]: binds
